In publication PMC10958042:

B1: ATGL (PNPLA2, patatin-like phospholipase domain-containing protein 2), human, full length / perilipin-5, mouse (mPlin5) (parent)
chain 1: MFPREKTWNISFAGCGFLGVYYVGVASCLREHAPFLVANATHIYGASAGALTATALVTGVCLGEAGAKFIEVSKEARKRFLGPLHPSFNLVKIIRSFLLKVLPADSHEHASGRLGISLTRVSDGENVIISHFNSKDELIQANVCSGFIPVYCGLIPPSLQGVRYVDGGISDNLPLYELKNTITVSPFSGESDICPQDSSTNIHELRVTNTSIQFNLRNLYRLSKALFPPEPLVLREMCKQGYRDGLRFLQRNGLLNRPNPLLALPPARPHGPEDKDQAVESAQAEDYSQLPGEDHILEHLPARLNEALLEACVEPTDLLTTLSNMLPVRLATAMMVPYTLPLESALSFTIRLLEWLPDVPEDIRWMKEQTGSICQYLVMRAKRKLGRHLPSRLPEQVELRRVQSLPSVPLSCAAYREALPGWMRNNLSLGDALAKWEECQRQLLLGLFCTNVAFPPEALRMRAPADPAPAPADPASPQHQLAGPAPLLSTPAPEARPVIGALGL
chain 2: MDQRGEDTTLAPHSRMSGDQTAQDPGSSLGELDQQNVVNRVVALPLVKATCTAVSSAYNSAKDRHPLLGSACRLAEHCVCSVTTCALDHAQPLLEHLQPQLATVNDLACRGLDKLEEKLPFLQQPSDMVVTSAKDTVAKSVTGMVDLAQRGRRWSGELRRSMSQAMDMVLGKSEKLVDRFLPMTEAELAVLAAEAEGPEVGTVEEQRQQQGYFVRLGSLSARLRHLAYEHSLGKLRQSKHRTQEMLAQLQETLELIQHMQRGASPSPTFHPPKTQELWGSWSPCLENGRSHSEVELETLALSRSLTLELQNAVDALAGCVRGLPPSAQAKVAEVQRSVDALQATFADAHCLGDVAPTALAEGRGSVARAHACVDEFLDLVLRAMPLPWLVGPFAPILVEQSEPLINLATCVDEVVGDPDPRWAHMDWPAQKRAWEAESADPGGQEAEPPRGQGKHTMMPELDF
B2: ATGL (PNPLA2, patatin-like phospholipase domain-containing protein 2), human, full length / G0S2 (G0/G1 switch protein 2), human (parent)
chain 1: B1 chain 1
chain 2: METVQELIPLAKEMMAQKRKGKMVKLYVLGSVLALFGVVLGLMETVCSPFTAARRLRDQEAAVAELQAALERQALQKQALQEKGKQQDTVLGGRALSNRQHAS

Variants of: B1
Test: LUMIER: Protein A-ATGL variant and firefly luciferase-partner co-expressed in HEK293T, lysates immunoprecipitated on IgG-coated plates, co-precipitated partner measured as luciferase luminescence
Conditions: with perilipin-5, mouse (mPlin5), transient co-transfection, IgG-coated LUMITRAC plates, 2 h at 4 °C, three PBS washes, Bright-Glo luciferase reagent, triplicates per assay, two …, parent: 0.15, not graded, scale: log2 fold change of co-immunoprecipitated luminescence relative to wild-type ATGL within each experiment

screen value	Variant
-0.0252	chain 1 S158A
-0.161	chain 1 A104E
-0.0602	chain 1 L178A
-0.208	chain 1 L102K
0.011	chain 1 Q140K
-0.185	chain 1 Q140A
-1.17	chain 1 L159A
-0.0604	chain 1 L62K
-0.2	chain 1 L62A
0.182	chain 1 A453E
0.184	chain 1 Y415A
-0.0642	chain 1 K275A
0.105	chain 1 R329E
-0.404	chain 1 R95L
0.211	chain 1 R95K
-0.213	chain 1 R351L
-0.512	chain 1 Q396A
-0.912	chain 1 V328A
-1.05	chain 1 G153K
-0.676	chain 1 G153A
-0.303	chain 1 P103K

screen value	Variant
-0.296	chain 1 R163K
-0.751	chain 1 N180L
0.284	chain 1 G16K
-0.463	chain 1 N39E
0.18	chain 1 A434L
-0.0206	chain 1 E368A
-0.305	chain 1 R113L
0.649	chain 1 R113K
0.152	chain 1 F348E
-0.695	chain 1 P258L
0.319	chain 1 H109E
-0.962	chain 1 I70K
-1.37	chain 1 I70A
-1.35	chain 1 G189E
-0.841	chain 1 G59L
-0.669	chain 1 P156K
0.00114	chain 1 E125L
-0.294	chain 1 V127L
-0.706	chain 1 L261E
0.0605	chain 1 K92L

Same assay, conditions: with perilipin-5, mouse (mPlin5), transient co-transfection, IgG-coated LUMITRAC plates, 2 h at 4 °C, three PBS washes, Bright-Glo luciferase reagent, triplicates per assay, two …, parent: 0.46, not graded, scale: log2 fold change of co-immunoprecipitated luminescence relative to wild-type ATGL within each experiment

screen value	Variant
0.0162	chain 1 S158A
-0.459	chain 1 A104E
-0.257	chain 1 L178A
-0.846	chain 1 L102K
-0.224	chain 1 Q140K
-0.0429	chain 1 Q140A
-0.435	chain 1 L159A
0.482	chain 1 L62K
-0.0199	chain 1 L62A
0.52	chain 1 A453E
0.247	chain 1 Y415A
-0.483	chain 1 K275A
-0.51	chain 1 R329E
-0.391	chain 1 R95L
-0.228	chain 1 R95K
-0.456	chain 1 R351L
-0.623	chain 1 Q396A
-0.985	chain 1 V328A
-0.867	chain 1 G153K
-0.506	chain 1 G153A

screen value	Variant
-0.674	chain 1 P103K
0.00396	chain 1 R163K
-0.918	chain 1 N180L
0.354	chain 1 G16K
-0.463	chain 1 N39E
0.786	chain 1 A434L
-0.0325	chain 1 E368A
0.191	chain 1 R113L
0.667	chain 1 R113K
-0.58	chain 1 F348E
-1.24	chain 1 P258L
-0.248	chain 1 H109E
-0.924	chain 1 I70K
-0.876	chain 1 I70A
-0.187	chain 1 G59L
-1.08	chain 1 P156K
-0.226	chain 1 E125L
-0.0973	chain 1 V127L
-0.846	chain 1 L261E
0.185	chain 1 K92L

Same assay, conditions: with perilipin-5, mouse (mPlin5), transient co-transfection, IgG-coated LUMITRAC plates, 2 h at 4 °C, three PBS washes, Bright-Glo luciferase reagent, triplicates per assay, two …, parent: 0.46, not graded, value at the no-binding floor (a bound), scale: log2 fold change of co-immunoprecipitated luminescence relative to wild-type ATGL within each experiment

screen value	Variant
-1.51	chain 1 G189E

Variants of: B2
Test: as above
Conditions: with G0S2 (G0/G1 switch protein 2), transient co-transfection, IgG-coated LUMITRAC plates, 2 h at 4 °C, three PBS washes, Bright-Glo luciferase reagent, triplicates per assay, two …, parent: 0.26, not graded, scale: log2 fold change of co-immunoprecipitated luminescence relative to wild-type ATGL within each experiment

screen value	Variant
0.353	chain 1 H109E
0.751	chain 1 G66A
-0.176	chain 1 G66L
-2.28	chain 1 G189E
-0.113	chain 1 A104E
-0.535	chain 1 K275A
-0.0735	chain 1 F35E
-0.163	chain 1 F35A
-1.67	chain 1 L62A
-1.38	chain 1 L62K
0.72	chain 1 A453E
-2.12	chain 1 G59L
0.251	chain 1 K92L
-1.77	chain 1 I70K
-1.03	chain 1 I70A
-0.233	chain 1 E368A
-1.68	chain 1 G153K

Same assay, conditions: with G0S2 (G0/G1 switch protein 2), transient co-transfection, IgG-coated LUMITRAC plates, 2 h at 4 °C, three PBS washes, Bright-Glo luciferase reagent, triplicates per assay, two …, parent: 0.56, not graded, scale: log2 fold change of co-immunoprecipitated luminescence relative to wild-type ATGL within each experiment

screen value	Variant
0.0835	chain 1 H109E
0.00762	chain 1 G66A
-0.16	chain 1 G66L
-2.66	chain 1 G189E
0.0584	chain 1 A104E
-0.748	chain 1 K275A
0.169	chain 1 F35E
-0.133	chain 1 F35A
-2.25	chain 1 L62A
-1.99	chain 1 L62K
-0.082	chain 1 A453E
-2.22	chain 1 G59L
-0.642	chain 1 K92L
-2.22	chain 1 I70K
-1.14	chain 1 I70A
-0.215	chain 1 E368A
-2.61	chain 1 G153K
